# Test results taken from the RNAGym collection of RNA variant scans (doi:10.7554/elife.80360).
# B1: CPEB3 Ribozyme (parent)
# chain: GGGGGCCACAGCAGAAGCGUUCACGUCGCGGCCCCUGUCAGAUUCUGGUGAAUCUGCGAAUUCUGCUGU
# Variants of: B1
# Test: self-cleavage, relative activity (ratio to wild type); higher = more cleavage; co-transcriptional
row,Variant,self-cleavage
1,C12U C34A,0.778
2,C12U C34U,0.959
3,C12U C34G,0.734
4,C12G C57U,0.336
5,C12G C57A,0.25
6,C12G C57G,0.427
7,C12U G31C,0.191
8,C12U G31A,0.905
9,C12U G31U,0.723
10,C12G C33A,0.68
11,C12G C33G,0.316
12,C12A C63G,0.354
13,C12A C57G,0.212
14,C12A C57A,0.172
15,C12A C57U,0.317
16,C12G G31U,0.206
17,C12G G31A,0.334
18,C12G G31C,0.217
19,C12U A59U,0.822
20,C12U A59C,0.623
21,C12U A59G,0.968
22,C12G G30C,0.367
23,C12U G30A,0.864
24,C12A G50C,0.591

row,Variant,self-cleavage
1,C12A G50A,0.809
2,C12A G50U,0.738
3,C12U U21G,0.537
4,C12U U21A,0.947
5,C12U C63G,0.443
6,C12A U49G,0.846
7,C12A U49A,0.893
8,C12A G58U,0.843
9,C12A G58C,0.653
10,C12G C45G,0.819
11,C12G C45U,0.868
12,C12G C45A,0.728
13,C12U G68U,0.995
14,C12U G68A,0.997
15,C12G G47C,0.888
16,C12G G47U,0.965
17,C12G G47A,0.912
18,C12G C34A,0.699
19,C12G C34U,0.89
20,C12A U46G,0.628
21,C12A U46C,0.609
22,C12A A60G,0.372
23,C12A A60U,0.257
24,C12A G65A,0.887

row,Variant,self-cleavage
1,C12A G65U,0.932
2,C12A A40C,0.209
3,C12A A40G,0.437
4,C12A A40U,0.218
5,C12U A60C,0.299
6,C12U A60G,0.716
7,C12U G28C,0.175
8,C12U G28A,0.17
9,C12U G28U,0.131
10,C12G C54A,0.416
11,C12G C54U,0.828
12,C12A G25C,0.127
13,C12G C18U,0.178
14,C12G C18A,0.185
15,C12G C18G,0.0782
16,C12A A52C,0.571
17,C12A A52U,0.603
18,C12A A52G,0.788
19,C12A U20C,0.132
20,C12A U20A,0.0992
21,C12A U20G,0.18
22,C12A C27A,0.145
23,C12A C27U,0.117
24,C12U C32G,0.529

row,Variant,self-cleavage
1,C12U C32A,0.874
2,C12A U69C,0.981
3,C12A U69A,0.886
4,C12U G37A,0.302
5,C12U G37U,0.222
6,C12U G37C,0.241
7,C12U A42U,0.91
8,C12U A42C,0.885
9,C12U A42G,0.863
10,C12G U20G,0.125
11,C12G U20A,0.228
12,C12G A60G,0.451
13,C12G A60C,0.277
14,C12U U36A,0.231
15,C12U U36G,0.193
16,C12U U20C,0.165
17,C12U U20A,0.146
18,C12A U38G,0.235
19,C12A C45G,0.614
20,C12A C45A,0.579
21,C12A U53G,0.335
22,C12A U53A,0.354
23,C12G G65U,0.952
24,C12G G65C,0.934

row,Variant,self-cleavage
1,C12G G65A,0.932
2,C12A U44A,0.349
3,C12A U44C,0.343
4,C12A U44G,0.55
5,C12G G17A,0.148
6,C12G G17C,0.0979
7,C12G U53G,0.654
8,C12G U53C,0.408
9,C12G U53A,0.634
10,C12G U36G,0.294
11,C12G U36A,0.228
12,C12U G19C,0.154
13,C12U G19A,0.12
14,C12A G30U,0.212
15,C12A G30A,0.322
16,C12G U69G,1.04
17,C12G U69A,0.881
18,C12G G58U,0.945
19,C12G G58A,0.852
20,C12A U61G,0.316
21,C12A U61A,0.312
22,C12A U61C,0.246
23,C12U A23U,0.963
24,C12U A23G,0.946

row,Variant,self-cleavage
1,C12U U55C,0.83
2,C12U U55G,0.616
3,C12A G14C,0.126
4,C12G A16G,0.578
5,C12A U43A,0.259
6,C12A U43G,0.207
7,C12A U43C,0.453
8,C12U C18G,0.218
9,C12U C18A,0.0961
10,C12U C18U,0.6
11,C12G U38A,0.739
12,C12G U38G,0.126
13,C12U C54G,0.84
14,C12U C54A,0.812
15,C12G C22U,0.149
16,C12G U67G,0.797
17,C12G U67A,0.8
18,C12G C63A,0.218
19,C12G C63G,0.339
20,C12U U53A,0.909
21,C12U U53G,0.771
22,C12G G56C,0.345
23,C12G U43A,0.519
24,C12G U43C,0.706

row,Variant,self-cleavage
1,C12A A59G,0.653
2,C12A A59U,0.343
3,C12A A59C,0.347
4,C12U G65U,0.948
5,C12U G65C,0.864
6,C12U G65A,1
7,C12U G56A,0.844
8,C12A C39G,0.346
9,C12A C39U,0.355
10,C12A C39A,0.228
11,C12A G19C,0.125
12,C12U U62G,0.542
13,C12U U62A,0.819
14,C12G A52U,0.852
15,C12G A52C,0.792
16,C12G A52G,0.94
17,C12U U67G,0.938
18,C12U U67A,0.948
19,C12A U36C,0.441
20,C12G U46A,0.91
21,C12G U46G,0.862
22,C12G U46C,0.832
23,C12U A52G,1.01
24,C12U A52C,0.903

row,Variant,self-cleavage
1,C12U U44C,0.906
2,C12A G56A,0.502
3,C12A G56U,0.296
4,C12A G56C,0.348
5,C12G A40U,0.404
6,C12G A40G,0.672
7,C12U A15U,0.502
8,C12U A15G,0.999
9,C12U U64A,0.697
10,C12U U64G,0.757
11,C12U U64C,0.785
12,C12A A51G,0.805
13,C12U G41U,0.718
14,C12A C33A,0.553
15,C12A C33G,0.395
16,C12U C22G,0.248
17,C12U C22U,0.16
18,C12A U64G,0.674
19,C12G G48A,0.953
20,C12G G48U,0.925
21,C12A C18G,0.113
22,C12A C18U,0.143
23,C12G U55C,0.558
24,C12G U55A,0.403

row,Variant,self-cleavage
1,C12G U55G,0.284
2,C12G G28A,0.163
3,C12G G28C,0.157
4,C12G C27U,0.0756
5,C12G C27A,0.216
6,C12A U26C,0.5
7,C12A U55A,0.23
8,C12A U55G,0.172
9,C12U U38C,0.921
10,C12U U38G,0.277
11,C12A C54A,0.311
12,C12A C54G,0.392
13,C12G C35U,0.83
14,C12U U49G,1
15,C12U U49C,0.971
16,C12U G58U,0.991
17,C12U G58A,1.01
18,C12U C57A,0.438
19,C12U C57G,0.31
20,C12G U62G,0.338
21,C12A U21A,0.642
22,C12A U21C,0.464
23,C12U G50C,0.974
24,C12U G50A,1

row,Variant,self-cleavage
1,C12A C34G,0.495
2,C12A C34A,0.448
3,C12U G14A,0.19
4,C12U G17U,0.321
5,C12U G17A,0.281
6,C12U G17C,0.138
7,C12U U46A,1
8,C12U U46C,0.939
9,C12G A42G,0.649
10,C12G A42U,0.61
11,C12G A42C,0.493
12,C12A C35A,0.149
13,C12A C35U,0.624
14,C12A G28C,0.164
15,C12A G28U,0.141
16,C12G G41A,0.353
17,C12A C32U,0.79
18,C12A C32A,0.402
19,C12A C32G,0.118
20,C12A C22A,0.144
21,C12A C22U,0.111
22,C12A C22G,0.129
23,C12U G25A,0.184
24,C12U G25C,0.121

row,Variant,self-cleavage
1,C12U G25U,0.134
2,C12U A51U,0.991
3,C12U A51G,0.996
4,C12G A51G,0.887
5,C12G A51C,0.79
6,C12G U21A,0.845
7,C12G U21G,0.364
8,C12A G17C,0.139
9,C12A G17U,0.0724
10,C12A G17A,0.187
11,C12A A42C,0.413
12,C12A A42G,0.41
13,C12A C24G,0.138
14,C12A C24A,0.236
15,C12A C24U,0.302
16,C12A G48A,0.833
17,C12A G48C,0.771
18,C12G U26A,0.695
19,C12G U26C,0.74
20,C12G U26G,0.729
21,C12U G48U,1.01
22,C12G C66A,0.487
23,C12G C66G,0.513
24,C12G C66U,0.69

row,Variant,self-cleavage
1,C12U A40C,0.358
2,C12U A40G,0.902
3,C12G U61A,0.537
4,C12G U61G,0.592
5,C12A G47U,0.876
6,C12A G47C,0.837
7,C12A G47A,0.875
8,C12G G68U,0.917
9,C12U A16G,0.814
10,C12U A16C,0.134
11,C12U A16U,0.655
12,C12G A13U,0.129
13,C12G A13C,0.26
14,C12U C33U,0.972
15,C12G U64A,0.508
16,C12A C66A,0.686
17,C12A C66G,0.561
18,C12A C29U,0.135
19,C12A C29G,0.105
20,C12U C39G,0.928
21,C12U C39U,0.854
22,C12U G47A,1.03
23,C12U G47C,1.03
24,C12U G47U,0.998

row,Variant,self-cleavage
1,C12A U67G,0.791
2,C12A U67A,0.671
3,C12A U67C,0.812
4,C12G G37A,0.174
5,C12U U26G,0.925
6,C12U U26A,0.91
7,C12U U26C,0.996
8,C12U C27U,0.297
9,C12U C27A,0.419
10,C12A G41C,0.191
11,C12A G41U,0.286
12,C12G A15U,0.171
13,C12G A15G,0.613
14,C12G A15C,0.301
15,C12G C32A,0.224
16,C12G C32U,0.834
17,C12G C32G,0.334
18,C12G C29A,0.213
19,C12G C29U,0.137
20,C12A U62G,0.312
21,C12A U62A,0.248
22,C12G G50U,0.84
23,C12G G50C,0.75
24,C12G G50A,0.917

row,Variant,self-cleavage
1,C12G U49G,0.857
2,C12U C66A,0.571
3,C12U C45A,0.97
4,C12U A13C,0.629
5,C12U A13U,0.583
6,C12U A13G,0.793
7,C12G A59C,0.339
8,C12G A59G,0.802
9,C12G C39G,0.455
10,C12G C39U,0.533
11,C12A G68C,0.842
12,C12A G68A,0.843
13,C12A G68U,0.807
14,C12U C29G,0.317
15,C12U C29U,0.232
16,C12G G25U,0.101
17,C12G G25A,0.161
18,C12U U43G,0.706
19,C12U U43C,0.928
20,C12U U61A,0.822
21,C12G U44C,0.488
22,C12G U44G,0.868
